Laboratory results from article PMC5098251 (Scientific Reports, 2016).

B1: A07a scFv (scFv, V domains shown)
VH: QLQLQESGPGLVKPSETLSLTCTVPGASISANSYYGVWVRQSPGKGLEWVGSIAYRGNSNSGSTYYNPSLKGRATVSVDTSKNQVSLRLTSVTAADTALYYCARRQLLDDGTGYQWAAFDNWDQGTMVTVSS
VL: QSVLTQPPSVSEAPRQTVTISCSGNSFNIGRYPVNWYQQLPGKAPKLLIYSNNLRFSGVSDRFSGSKSGTSASLAIRDLLSEDEADYYCSTWDDTLKGWVFGGGTKVTVL
B2: R4aS scFv (scFv, V domains shown)
VH: QLQLQESGPGLVKPSETLSLTCTVPGASISANSYYGVWVRQSPGKGLEWVGSIAYRGNSNSGSTYYNPSLKSRATVSVDTSKNQVSLRLTSVTAADTALYYCARRQLLDDGTGYQWAAFDNWDQGTMVTVSS
VL: QSVLTQPPSVSEAPRQTVTISCSGNSFNTGRYPVNWYQQLPGKAPKLLIYSNNLRLSGVSDRFSGSKSGTSASLAIRDLLSEDEADYYCSTWDDTLEGWVFGGGTKVTVL
B3: SNAP-A09a scFv-HA (scFv, V domains shown)
VH: QLQLQEPGPGLTKPSETLSLTCTVPGASISADSYYGVWVRQSPGKGLEWVGSIAYRGNSNSGSTYYNPSLKSRATVSVDTSKNQVSLRLTSVTAADTALYYCARRQLLDDGTGYQWAAFDVWGQGTMVTVSS
VL: QSVLTQPPSVSEAPRQTVTISCSGNSFNIGRYPVNWYQQLPGKAPKLLIYHNNLRFSGVSDRFSGSKSGTSASLAIRDLLSEDEADYYCSTWDDTLKGWVFGGGTKVTVL
notes: numbers count on: Kabat numbering; scFv linker, as in m6; On-bead form of m13; not shown: SNAP-tag, N-terminal, kept; HA, C-terminal, kept
B4: SNAP-E09 scFv-HA (scFv, V domains shown)
VH: QLQLQESGPGLVKPSETLSLTCTVSGASISANSYYGVWVRQSPGKGLEWVGSIAYRGNSNSGSTYYNPSLKSRATVSVDTSKNQVSLRLTSVTAADTALYYCARRQLLDDGTGYQWAAFDVWGQGTMVTVSS
VL: QSVLTQPPSVSEAPRQTVTISCSGNSFNIGRYPVNWYQQLPGKAPKLLIYYNNLRFSGVSDRFSGSKSGTSASLAIRDLLSEDEADYYCSTWDDTLKGWVFGGGTKVTVL
notes: VH: as the VH of m6 (E09); scFv linker, as in m6; VL: as the VL of m6 (E09); 47 kDa fusion; The parent vector pIVEX-SNAP-GFP holds the R30I mutant of the SNAP-tag; also called SNAP-scFv-HA; parent; source: in vitro translated (PURExpress), captured on BG-DNA-coated streptavidin beads; not shown: SNAP-tag, N-terminal, kept; HA, C-terminal, kept
B5: E09 scFv with the single mutation VH S25P (scFv, V domains shown)
VH: QLQLQESGPGLVKPSETLSLTCTVPGASISANSYYGVWVRQSPGKGLEWVGSIAYRGNSNSGSTYYNPSLKSRATVSVDTSKNQVSLRLTSVTAADTALYYCARRQLLDDGTGYQWAAFDVWGQGTMVTVSS
VL: QSVLTQPPSVSEAPRQTVTISCSGNSFNIGRYPVNWYQQLPGKAPKLLIYYNNLRFSGVSDRFSGSKSGTSASLAIRDLLSEDEADYYCSTWDDTLKGWVFGGGTKVTVL
notes: numbers count on: Kabat numbering; scFv linker, as in m6; VL: as the VL of m6 (E09); Made by site-directed mutagenesis of E09 in pCantab6
B6: E09 scFv with the single mutation VL Y50S (scFv, V domains shown)
VH: QLQLQESGPGLVKPSETLSLTCTVSGASISANSYYGVWVRQSPGKGLEWVGSIAYRGNSNSGSTYYNPSLKSRATVSVDTSKNQVSLRLTSVTAADTALYYCARRQLLDDGTGYQWAAFDVWGQGTMVTVSS
VL: QSVLTQPPSVSEAPRQTVTISCSGNSFNIGRYPVNWYQQLPGKAPKLLIYSNNLRFSGVSDRFSGSKSGTSASLAIRDLLSEDEADYYCSTWDDTLKGWVFGGGTKVTVL
notes: VH: as the VH of m6 (E09); scFv linker, as in m6; numbers count on: Kabat numbering; Made by site-directed mutagenesis of E09 in pCantab6

Tests used:
recombinant human FasR [1] = target: T1, recombinant human FasR (Homo sapiens, UniProt P25445); assay: BLI; Octet Red384; recombinant human FasR; 1:1 Langmuir model; at least in duplicate; who was immobilised is not told (Supplementary Protocols 8-10)
T1 construct: Fas receptor (FasR, CD95), human, recombinant; The FasR of the BLI and SPR experiments; Details are in Supplementary Protocols 8-10; also called recombinant FasR

[2] = target: T2, FasR-Fc (Fc-fused Fas receptor) (Homo sapiens, UniProt P25445); assay: on-bead binding assay read by flow cytometry (Bead Surface Display); SNAP-scFv-HA made by in vitro transcription/translation and held on streptavidin beads through BG-DNA anchors; beads incubated 1 h at room temperature with FasR-Fc (1 nM unless stated; 1, 10 and 30 nM in Fig. 2B), then with DyLight488-labelled goat anti-Fc; 1.5% marvel in PBS, washes with PBS and 0.05% Tween 20; settings: one partner purified
T2 construct: Fas receptor (FasR, CD95), human; also called Fas-Fc; CD95; source: bought: R&D Systems

[3] = target: T2, FasR-Fc (Fc-fused Fas receptor); assay: on-bead equilibrium titration read by flow cytometry (Bead Surface Display); apparent; Fas-Fc titrated against beads displaying SNAP-scFv-HA; normalised median fluorescence fitted to a saturation binding curve; settings: one partner purified
recombinant human FasR [4] = target: T1, recombinant human FasR; assay: BLI; Octet Red384; recombinant human FasR; 1:1 Langmuir model; at least in duplicate; who was immobilised is not told (Supplementary Protocols 8-10); settings: both partners purified

T2 sequence (P25445 26-173): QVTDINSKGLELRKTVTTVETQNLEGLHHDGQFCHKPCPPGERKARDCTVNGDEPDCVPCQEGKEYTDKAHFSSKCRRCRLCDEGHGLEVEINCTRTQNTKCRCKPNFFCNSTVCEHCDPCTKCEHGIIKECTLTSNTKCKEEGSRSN
T1 sequence (P25445 26-335): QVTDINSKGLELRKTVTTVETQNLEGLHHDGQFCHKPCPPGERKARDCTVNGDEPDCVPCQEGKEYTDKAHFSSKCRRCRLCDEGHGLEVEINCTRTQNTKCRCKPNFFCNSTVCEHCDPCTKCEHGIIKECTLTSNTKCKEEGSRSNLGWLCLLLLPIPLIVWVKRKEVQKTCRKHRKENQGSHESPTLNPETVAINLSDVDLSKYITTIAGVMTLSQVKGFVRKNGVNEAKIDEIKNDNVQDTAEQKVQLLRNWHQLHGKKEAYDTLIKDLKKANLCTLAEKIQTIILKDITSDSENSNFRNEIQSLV

Binder	Kd (recombinant human FasR [1])	koff (recombinant human FasR [1])	kon (recombinant human FasR [1])	fold increase in affinity over the parent scFv E09 (Kd) (recombinant human FasR [4])	further results
B1	0.4 nM	5.6e-05 s⁻¹	162000 M⁻¹ s⁻¹		
B2	0.38 nM	4.5e-05 s⁻¹	117000 M⁻¹ s⁻¹		
B3					fold increase of MFS over E09 [2]: > 2 fold
B4					fold signal increase over the background (FasR at 1 nM) [2]: > 1250 fold; Kd [3]: 4.3 ± 0.3 nM
B5				4 fold	
B6				4 fold	
